In patent US20160145325A1 (AGROSAVFE N V, published 2016):

Biological target: T1, potato lectin (Solanum Tuberosum Lectin, Vector labs, cat#: L-1160) (Solanum tuberosum (potato), UniProt Q9S8M0 23-323)
T1 construct: Bought glycoprotein coated on ELISA wells as an unrelated control compound
T1 sequence: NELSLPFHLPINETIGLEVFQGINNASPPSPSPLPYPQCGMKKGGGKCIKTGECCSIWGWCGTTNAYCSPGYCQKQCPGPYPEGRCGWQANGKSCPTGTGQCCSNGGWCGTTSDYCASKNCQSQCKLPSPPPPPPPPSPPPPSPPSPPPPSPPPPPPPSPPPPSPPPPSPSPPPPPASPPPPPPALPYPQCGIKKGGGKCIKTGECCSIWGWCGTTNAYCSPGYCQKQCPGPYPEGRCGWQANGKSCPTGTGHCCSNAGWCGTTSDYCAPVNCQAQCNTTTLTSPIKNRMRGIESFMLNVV
Experiment: ELISA, purified VHH on wells coated with potato lectin, OD 405 nm

B1: anti-GlcCer VHH 56F11 (VHH)
VHH: QVQLQESGGGLVQSGGSLRLSCVHSKTTFTRNAMGWYRQALGKERELVATITSGGTTNYADSVKGRFTISMDSAKNTVYLQMNSLKPEDTAVYYCNVNTRRIFGGTVREYWGQGTQVTVSS
notes: Llama VHH raised against fungal glucosylceramide, made in E. coli and purified through its hexahistidine tag; Tested as purified VHH at 1 ug/ml; not shown: C-terminal (His)6 and c-myc peptide tags coded by vector pASF20
B1: no binding (tested: 1 µg/ml).

B2: anti-GlcCer VHH 41D01 (VHH)
VHH: QVQLQESGGGLVQAGGSLRLSCAASGRTFSRYGMGWFRQLPGKQRELVTSITRGGTTTYADSVKGRFTISRDNAKNTVYLQMNSLKPEDTAVYYCNARSIWRDYWGQGTQVTVSS
notes: Llama VHH raised against fungal glucosylceramide, made in E. coli and purified through its hexahistidine tag; Tested as purified VHH at 0.1 ug/ml; also called GlcCer-specific VHH 41D01; not shown: C-terminal (His)6 and c-myc peptide tags coded by vector pASF20
B2: no binding (tested: 0.1 µg/ml).
